Numbering of substitutions follows the chain as printed. Names and notes keep the numbering of the source. Values joined by “and” are separate entries in the source; they are usually repeats but may differ in a detail not shown here. Equal entries are not always repeated.
Key:
[1] = substrate: O=C(O)C(=O)O; test: purified protein; conditions: buffer and temperature same
[2] = molecular target: the molecule itself; test: SEC

B1: OxDC (oxalate decarboxylase) (Bacillus subtilis subsp. subtilis str. 168; E101Q/E280Q) (protein)
chain: MKKQNDIPQPIRGDKGATVKIPRNIERDRQNPDMLVPPETDHGTVSNMKFSFSDTHNRLEKGGYAREVTVRELPISENLASVNMRLKPGAIRELHWHKEAQWAYMIYGSARVTIVDEKGRSFIDDVGEGDLWYFPSGLPHSIQALEEGAEFLLVFDDGSFSENSTFQLTDWLAHTPKEVIAANFGVTKEEISNLPGKEKYIFENQLPGSLKDDIVEGPNGEVPYPFTYRLLEQEPIESEGGKVYIADSTNFKVSKTIASALVTVEPGAMRELHWHPNTHQWQYYISGKARMTVFASDGHARTFNYQAGDVGYVPFAMGHYVENIGDEPLVFLEIFKDDHYADVSLNQWLAMLPETFVQAHLDLGKDFTDVLSKEKHPVVKKKCSK
Km ([1]; 0.07 Mn/monomer): 2.9 ± 0.3 mM | kcat ([1]; 0.07 Mn/monomer): 0.012 ± 0.0003 s⁻¹ | kcat/Km ([1]; 0.07 Mn/monomer): 4 M⁻¹ s⁻¹

B2: OxDC (oxalate decarboxylase) (Bacillus subtilis subsp. subtilis str. 168; E101Q) (protein)
chain: B1 chain with Q280E
Km ([1]; 0.11 Mn/monomer): 4.0 ± 0.2 mM | kcat ([1]; 0.11 Mn/monomer): 0.62 ± 0.01 s⁻¹ | kcat/Km ([1]; 0.11 Mn/monomer): 155 M⁻¹ s⁻¹

B3: OxDC (oxalate decarboxylase) (Bacillus subtilis subsp. subtilis str. 168; E101D) (protein)
chain: B1 chain with Q101D, Q280E
Km ([1]; 0.09 Mn/monomer): 3.4 ± 0.1 mM | kcat ([1]; 0.09 Mn/monomer): 0.49 ± 0.01 s⁻¹ | kcat/Km ([1]; 0.09 Mn/monomer): 144 M⁻¹ s⁻¹

B4: recombinant, wild-type Bacillus subtilis oxalate decarboxylase (enzyme, UniProt O34714 1-385, looked up)
chain: B1 chain with Q101E, Q280E
stoichiometry N [2]: 6 and 12 monomers to 18 monomers (2×)

B5: OxDC (oxalate decarboxylase) (Bacillus subtilis subsp. subtilis str. 168; E280A) (protein)
chain: B1 chain with Q101E, Q280A
Km ([1]; 0.67 Mn/monomer): 3.0 ± 0.2 mM | kcat ([1]; 0.67 Mn/monomer): 0.019 ± 0.001 s⁻¹ | kcat/Km ([1]; 0.67 Mn/monomer): 6 M⁻¹ s⁻¹

B6: OxDC (oxalate decarboxylase) (Bacillus subtilis subsp. subtilis str. 168; E280D) (protein)
chain: B1 chain with Q101E, Q280D
Km ([1]; 0.64 Mn/monomer): 5.4 ± 0.4 mM | kcat ([1]; 0.64 Mn/monomer): 0.14 ± 0.01 s⁻¹ | kcat/Km ([1]; 0.64 Mn/monomer): 26 M⁻¹ s⁻¹

B7: OxDC (oxalate decarboxylase) (Bacillus subtilis subsp. subtilis str. 168; E280Q) (protein)
chain: B1 chain with Q101E
Km ([1]; 0.73 Mn/monomer): 10.1 ± 0.6 mM | kcat ([1]; 0.73 Mn/monomer): 0.62 ± 0.01 s⁻¹ | kcat/Km ([1]; 0.73 Mn/monomer): 61 M⁻¹ s⁻¹

B8: OxDC (oxalate decarboxylase) (Bacillus subtilis subsp. subtilis str. 168; E101A) (protein)
chain: B1 chain with Q101A, Q280E
Km ([1]; 0.18 Mn/monomer): 2.9 ± 0.3 mM | kcat ([1]; 0.18 Mn/monomer): 0.046 ± 0.002 s⁻¹ | kcat/Km ([1]; 0.18 Mn/monomer): 16 M⁻¹ s⁻¹

Source: article PMC2801813 (Biochemistry, 2009)
